The source of these data is article PMC8161422.

Data set [1] addresses alpha-synuclein 5Q mutant E114Q;E123Q;E126Q;E137Q;E139Q (UniProt P37840). Description: pH electrode (Orion Star A211 meter, Orion ROSS combination micro electrode) before and after fibril formation; closed-system proton balance. Particulars: fibril formation at 37 °C, temperature of the pH reading not stated, no added salt (pure water; protein and its counter-ions only), none (Milli-Q water; the protein is the only buffer).

The target of another data set is His50 (UniProt position 50, KEGVVHGVATV). Description: NMR. The following applies: No added salt is implied by the Table 1 footnote 'in absence of salt'. Ionic strength is otherwise not stated.; 20 mM sodium phosphate buffer, pH 7 (as described in this article); protein 250 µM; free monomer, intrinsically disordered, no fibrils; cited from earlier work.
The target of data set [2] is alpha-synuclein, wild type (UniProt P37840). Kind of data set: NMR pH titration (quoted from Croke et al. 2011, ref 30). The following applies: 20 mM sodium phosphate buffer, pH 7 (so in the source); cited from earlier work.
For data set [3] the target is unchanged. Description: NMR pH titration (quoted from Croke et al. 2011, ref 30); Asp and Glu values averaged by the present authors. Particulars: in absence of salt (Table 1 footnote d), not stated for the Asp/Glu values ('in buffer'); cited from earlier work.
Data set [4] shares this target. Description: pH electrode (Orion Star A211 meter, Orion ROSS combination micro electrode) before and after fibril formation; closed-system proton balance. Particulars: fibril formation at 37 °C, temperature of the pH reading not stated, no added salt (pure water; protein and its counter-ions only), none (Milli-Q water; the protein is the only buffer).

As to “alpha-synuclein 5Q mutant E114Q;E123Q;E126Q;E137Q;E139Q”, the “change of sample pH on fibril formation” value in data set [1] (pH 6.4-6.6) is given as “pH increases by only 0.2 units, from pH 6.4 (monomer) to pH 6.6 (fibrils), 20 uM in water”. The apparent pKa(ave) of acidic groups in fibrils, average over the remaining acidic groups (five fewer than wild type) of the 5Q mutant in data set [1] (pH 6.6) worked out at 4.7 pH units.

As usually defined, the pKa is the pH at which an ionisable group is half protonated. Turning to alpha-synuclein (Homo sapiens), the pKa in the data set with His50 is given as 6.78.

With alpha-synuclein, wild type, the pKa, His50 of alpha-synuclein (monomer) in data set [2] was 6.78 pH units. For the same substance, in data set [3], the pKa in C-terminal tail of α-synuclein (Asp), average of Asp residues in the C-terminal tail of monomeric alpha-synuclein is 4.2 pH units; the pKa in C-terminal tail of α-synuclein (Glu), average of Glu residues in the C-terminal tail of monomeric alpha-synuclein is 4.6 pH units; the pKa in N-terminal and NAC region of α-synuclein (Asp), average of Asp residues in the N-terminal and NAC regions (first 100 residues) of monomeric alpha-synuclein is 3.6 pH units; the pKa in N-terminal and NAC region of α-synuclein (Glu), average of Glu residues in the N-terminal and NAC regions (first 100 residues) of monomeric alpha-synuclein was 4.2 pH units. Moreover, in data set [3], the pKa in full length α-synuclein monomer (Asp), average of all Asp residues of monomeric alpha-synuclein is 4 pH units and the pKa in full length α-synuclein monomer (Glu), average of all Glu residues of monomeric alpha-synuclein was 4.4 pH units. In data set [4] (pH 5.6-6.5), the “change of sample pH on fibril formation” value is “pH increases by 0.9 units, from pH 5.6 (monomer) to pH 6.5 (fibrils), 20 uM in water” and the “protons taken up per monomer during fibril formation” value was “about 2 protons per monomer”. Moreover, in data set [4] (pH 6.5), the apparent pKa(ave) of acidic groups in fibrils, average over all acidic groups (Asp, Glu and the C-terminus) of alpha-synuclein was determined as 5.4 pH units.
